Laboratory results published in patent publication US20150315260A1 (Sanofi, published 2015).
Non-standard residues stand in square brackets, D forms with d. No end group written: not given here. Aib = CC(C)(N)C(=O)O

Experiments:
Test in all cases: cell-based or functional assay
[1] = target: human GLP-1 receptor (human, UniProt P43220 24-463)
[2] = target: human glucagon receptor (human, UniProt P47871 26-477)
[3] = target: T1, human GIP receptor (human, UniProt P48546 22-466)
T1 sequence (looked up): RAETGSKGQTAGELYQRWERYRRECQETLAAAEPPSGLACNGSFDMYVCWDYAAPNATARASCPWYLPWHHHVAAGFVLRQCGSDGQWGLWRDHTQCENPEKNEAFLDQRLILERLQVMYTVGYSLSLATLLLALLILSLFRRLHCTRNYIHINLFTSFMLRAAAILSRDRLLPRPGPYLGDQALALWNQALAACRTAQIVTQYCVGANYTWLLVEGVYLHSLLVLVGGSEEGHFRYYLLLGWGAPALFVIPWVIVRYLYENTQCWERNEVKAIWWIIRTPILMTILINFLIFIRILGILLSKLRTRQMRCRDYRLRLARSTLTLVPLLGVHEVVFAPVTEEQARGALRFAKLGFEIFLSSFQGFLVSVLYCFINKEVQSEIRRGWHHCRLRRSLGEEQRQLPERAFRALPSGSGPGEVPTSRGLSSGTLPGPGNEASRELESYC

human glucagon receptor, sequence (P47871 26-477): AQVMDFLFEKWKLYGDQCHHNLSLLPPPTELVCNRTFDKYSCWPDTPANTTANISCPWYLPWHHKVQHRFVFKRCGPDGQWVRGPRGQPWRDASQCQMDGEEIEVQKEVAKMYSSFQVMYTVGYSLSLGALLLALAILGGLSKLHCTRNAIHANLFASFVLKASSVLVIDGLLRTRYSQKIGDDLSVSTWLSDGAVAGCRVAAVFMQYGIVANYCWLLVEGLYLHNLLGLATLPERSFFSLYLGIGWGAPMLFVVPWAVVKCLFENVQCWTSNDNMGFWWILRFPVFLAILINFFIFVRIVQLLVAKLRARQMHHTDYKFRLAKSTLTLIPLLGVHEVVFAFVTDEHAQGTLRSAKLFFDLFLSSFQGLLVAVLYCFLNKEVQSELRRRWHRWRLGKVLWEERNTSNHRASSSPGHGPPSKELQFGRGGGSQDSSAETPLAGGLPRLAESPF

B1: exendin-4 derivative SEQ ID NO: 23 (comparison compound, non-functionalized Lys in position 14) (peptide)
peptide: H[Aib]QGTFTSDLSKQKDEQRAKLFIEWL[Aib]AGGPSSGAPPPS-NH2
modifications: N-terminus assumed
SMILES: CC[C@H](C)[C@H](NC(=O)[C@H](Cc1ccccc1)NC(=O)[C@H](CC(C)C)NC(=O)[C@H](CCCCN)NC(=O)[C@H](C)NC(=O)[C@H](CCCNC(=N)N)NC(=O)[C@H](CCC(N)=O)NC(=O)[C@H](CCC(=O)O)NC(=O)[C@H](CC(=O)O)NC(=O)[C@H](CCCCN)NC(=O)[C@H](CCC(N)=O)NC(=O)[C@H](CCCCN)NC(=O)[C@H](CO)NC(=O)[C@H](CC(C)C)NC(=O)[C@H](CC(=O)O)NC(=O)[C@H](CO)NC(=O)[C@@H](NC(=O)[C@H](Cc1ccccc1)NC(=O)[C@@H](NC(=O)CNC(=O)[C@H](CCC(N)=O)NC(=O)C(C)(C)NC(=O)[C@@H](N)Cc1c[nH]cn1)[C@@H](C)O)[C@@H](C)O)C(=O)N[C@@H](CCC(=O)O)C(=O)N[C@@H](Cc1c[nH]c2ccccc12)C(=O)N[C@@H](CC(C)C)C(=O)NC(C)(C)C(=O)N[C@@H](C)C(=O)NCC(=O)NCC(=O)N1CCC[C@H]1C(=O)N[C@@H](CO)C(=O)N[C@@H](CO)C(=O)NCC(=O)N[C@@H](C)C(=O)N1CCC[C@H]1C(=O)N1CCC[C@H]1C(=O)N1CCC[C@H]1C(=O)N[C@@H](CO)C(N)=O
What does the source list for B1?
EC50 hGLP-1R (cAMP formation) [1]: 0.0525 nM; EC50 hGlucagon-R (cAMP formation) [2]: 42.9 nM; EC50 hGIP-1 (cAMP formation, GIP receptor) [3]: 177 nM
